Experimental data reported in US11339381B2, “Nucleotide sequence encoding 9-lipoxygenase and recombinant constructs comprising the same” (Council of Scientific & Industrial Research, priority 2016, dated 2022).

Assays:
[1] = test system: ethylene treated mango fruits; experiment: In vivo transient over expression of 9-lipoxygenase by Agrobacterium mediated infiltration; design: species or system Alphonso mango (Mangifera indica); conditions: for δ-decalactone content compared to control tissue / δ-valerolactone content compared to control tissue: transient over expression, 2 days post infiltration, GC-FID
Method: The full length polynucleotide sequence (SEQ ID NO: 1) encoding 9-lipoxygenase (SEQ ID NO: 2) was cloned into the pBI121 plant expression vector between CaMV 35S promoter and GusA gene. Terminal primers were designed (SEQ ID NO: 10 and SEQ ID NO: 11) to clone genes at BamHI restriction site. The resulted correct oriented construct pBI121+Mi9LOX and pBI121 empty vector were transformed in the Agrobacterium GV3101 strain for transient expression studies. Separate Agrobacterium cultures (5 mL) were initiated from individual colonies in YEB medium having appropriate antibiotics and incubated overnight at 28° C. This culture was transferred to 50 mL induction medium (0.5% beef extract, 0.1% yeast extract, 0.5% peptone, 0.5% sucrose, 2 mM MgSO4, […], 10 mM MES, pH 5.6) having appropriate antibiotics, and again grown overnight. On the succeeding day, cultures were recovered by centrifugation, resuspended in infiltration medium (10 mM MgCl2, 10 mM MES, […], pH 5.6) till optical density reaches 1.0. This suspension was again incubated at 28° C. with gentle agitation for 2 hrs. Over expression studies for 9LOX was carried out by Agrobacterium mediated infiltration in ethylene treated mango fruits at 3DAH stage by using hypodermic syringe (FIG. 4a). Equal volumes of pBI121+Mi9LOX and pBI121 construct containing cultures were used for infiltration in two different halves of same mango fruit separated by fruit stone. Set of five distinct mango fruits were used for the overexpression study as data set. Infiltrated fruits were kept at 25° C. for 2 days in 12 hr dark and 12 hr light conditions, after 2 days; part from each fruit halves was checked by the Gus staining (Kapila et al. 1997; Spolaore et al. 2001) to confirm expression of Mi9LOX under 35S promoter along with GusA, remaining part of fruit pulp stored in −80° C. until used for the lactone analysis by gas chromatography.
Thus, ethylene treated mangoes were ideal for Agrobacterium infiltration studies as Agrobacterium infiltrated fruits cannot be incubated for more than 2 days due to the risk of bacterial and fungal infection owing to fruit injury during infiltration. Two days post infiltration, a part of fruit was checked by Gus staining (FIG. 4b) to confirm expression of GusA along with the Mi9LOX gene. The remaining tissue was used for the lactone content analysis. The lactones were analysed from control and test region of fruits from Mi9LOX sets. Total 8 lactones viz. γ-butyrolactone, δ-valerolactone, γ-hexalactone, δ-hexalactone, γ-octalactone, δ-octalactone, γ-decalactone and δ-decalactone were detected from all the tissues in GC-MS analysis.

[2] = test system: recombinant 9-lipoxygenase (Mi9LOX); experiment: Recombinant Mi9LOX enzyme kinetics with LA and ALA as substrates (conjugated diene formation at 234 nm); format: biochemical, Mangifera indica; conditions: substrate of Mi9LOX
Method: The recombinant 9-lipoxygenase (Mi9LOX) activity assays was initially carried out in 250 μl final volume of 100 mM phosphate citrate buffer pH 7.0 at 30° C. containing 200 μM substrate (LA/ALA) and 0.005% Tween20. The activity was measured by formation of the conjugated diene at absorbance of 234 nm, applying an extinction coefficient 25000 M^-1 cm^-1 for both the substrates. […] at 0th min for each reaction is considered as blank and subtracted from […] for given time (t). Similar activity assays were also performed with protein expressed from empty vector for the confirmation of Mi9LOX activity. Optimum pH was determined by calculating activity at varied range of pH in phosphate citrate buffer at 30° C., whereas temperature optima was determined by calculating recombinant 9-lipoxygenase activity in phosphate citrate buffer pH 7 at various temperatures. The purified recombinant 9-lipoxygenase having amino acid sequence as set forth in SEQ ID NO: 2 used linoleic acid (LA) and alpha linolenic acid (ALA) as substrates. Activity of the recombinant 9-lipoxygenase protein was measured spectrophotometrically at 234 nm by the formation of conjugated dienes. For unit calculations, molar extinction coefficient for hydroperoxy linoleate and linolenate was considered 25000 cm^-1M^-1. […]

[3] = test system: recombinant 9-lipoxygenase (Mi9LOX); experiment: pH and temperature activity profile of recombinant Mi9LOX; format: biochemical, Mangifera indica; conditions: for Optimum temperature: phosphate citrate buffer pH 7
Method: The recombinant 9-lipoxygenase (Mi9LOX) activity assays was initially carried out in 250 μl final volume of 100 mM phosphate citrate buffer pH 7.0 at 30° C. containing 200 μM substrate (LA/ALA) and 0.005% Tween20. The activity was measured by formation of the conjugated diene at absorbance of 234 nm, applying an extinction coefficient 25000 M^-1 cm^-1 for both the substrates. […] at 0th min for each reaction is considered as blank and subtracted from […] for given time (t). Similar activity assays were also performed with protein expressed from empty vector for the confirmation of Mi9LOX activity. Optimum pH was determined by calculating activity at varied range of pH in phosphate citrate buffer at 30° C., whereas temperature optima was determined by calculating recombinant 9-lipoxygenase activity in phosphate citrate buffer pH 7 at various temperatures. The purified recombinant 9-lipoxygenase having amino acid sequence as set forth in SEQ ID NO: 2 used linoleic acid (LA) and alpha linolenic acid (ALA) as substrates. Activity of the recombinant 9-lipoxygenase protein was measured spectrophotometrically at 234 nm by the formation of conjugated dienes. For unit calculations, molar extinction coefficient for hydroperoxy linoleate and linolenate was considered 25000 cm^-1M^-1. 9HpODE and 9HpOTrE products formed by the activity of Mi9LOX on LA and ALA respectively were confirmed by UPLC-HRMS. […] (FIG. 10(a)).

[4] = HRMS intermediate metabolite analysis

| Km [2] [µM] | Vmax [2] | reduction in the activity ([3]; at 35° C.) [%] | reduced activity ([3]; at 50° C.) [%] | reduction in the activity ([3]; at pH 5 and 9) [%] | Molecule | δ-decalactone content compared to control tissue [1] [fold] | δ-valerolactone content compared to control tissue [1] [fold] | Optimum pH ([3]; phosphate citrate buffer at 30° C.) | Optimum temperature [3] [°C] | Optimum temperature ([3]; listed as recombinant 9-lipoxygenase) [°C] | 9HpODE in control and test tissues [1, 4] | increase in 9HpOTrE upon Mi9LOX over expression [1, 4] [folds] | increase of Mi9LOX transcripts in test tissues as compared to the control tissues ([1]; upon Agrobacterium infiltration) |
| --- | --- | --- | --- | --- | --- | --- | --- | --- | --- | --- | --- | --- | --- |
| – | – | – | – | – | SEQ ID NO: 1: 2526 bp cDNA polynucleotide encoding 9-lipoxygenase, cloned in pBI121 and agroinfiltrated for transient over expression | 1.48 | 1.08 | – | – | – | – | – | – |
| 354 | LA- 611.11 ± 55.55 μM min^−1mg^−1 | – | – | – | CCCCC/C=C\C/C=C\CCCCCCCC(=O)O [LA, linoleic acid] | – | – | – | – | – | – | – | – |
| – | – | 75 | 69 | 40 | Mi9LOX: Recombinant Mangifera indica 9-lipoxygenase from Alphonso mango, 841 aa, SEQ ID NO: 2 (protein, Protein sequence of 7- Dehydrocholestrol reductase (7-DHCR)) MGTVVLMKKNFLDFNDLSASVIDRVDELVGKRVSLQLVSAFNSDPTASNGLQGKVGEPAHLEEWITTITPLVAEESTFKVTFDWDEQIGVPGAFIIKNNHHSGFYLKSLTLEDVPNQGRIHFVCNSWVYPAKRYKKDRVFFTNKTYLPGEMPAPLQYYREQELLNLRGDGTGELQEWDRVYDYAYYNDLGDPDNGKPRPVLGGSTEYPYPRRGRTGRPPAKTDPETESRLPLLTSLNIYVPRDERFGHIKMSDFLGYALKSISQFIEPALESVFDSTPNEFDNFAQIYKLYDEGIQLPNDHFLDDIRNNIPLELLKEIFPTNEDNLFEFPTPQVIQGDRSAWRTDEEFAREMLAGPNPVIIRRVEEFPPRSKLDPELYGDQDSKITKQHIESYLDGLTVEQAIEKNELFILDHHDSLMTYLRRINTTSTKTYASRTILFLKEDGTLKPLAIELSRPHPDGDQYGAISNVYTPSEDEVEGSIWQLAKAYVAVNDSGVHQLISHWLKTHAAIEPFVIATNRQLSVLHPIYKLLQPHFRDTMNINAFARQIVINAGGILETTVFPAKYAMEMSSAIYKDWTFPDQALPEDLKNRGMAVEDPNSPHGLRLLIADYPYAVDGLEIWFAIKNWVKDYCYFYYKSDEMMQKDSGLQSWWKELREEGHGDKKDEPWWPKMQNREELIEACTIIIWIASALHAAVNFGQYPYAGFLPNRPTMSRRFMPEKGTPDYDELESNFDKVFLKTITAQRQTLLGIALIETLSRHSSDEMYLGQRDTPEWTSDKIPLQAFEDFGKKLGDIEVRIITRNHDNMLKNRVGPVNMPYTLLYPTSEGGLTGKGIPNSVSI | 1.48 | 1.08 | 6.5 | 37 | 35 | not detected | 1.9 | 1.73 |
